Laboratory results as given in publication PMC4374921, “Inhibition of Type VI Secretion by an Anti-TssM Llama Nanobody” (PLoS ONE, 2015).

T1: periplasmic domain of the EAEC TssM protein (enteroaggregative Escherichia coli …)
T1 construct: TssM of enteroaggregative Escherichia coli (EAEC), a 1129-amino-acid inner membrane protein; periplasmic domain, amino-acids 386-1129; also called TssM periplasmic domain; source: recombinant, produced and purified as described previously [11]
T1 chain: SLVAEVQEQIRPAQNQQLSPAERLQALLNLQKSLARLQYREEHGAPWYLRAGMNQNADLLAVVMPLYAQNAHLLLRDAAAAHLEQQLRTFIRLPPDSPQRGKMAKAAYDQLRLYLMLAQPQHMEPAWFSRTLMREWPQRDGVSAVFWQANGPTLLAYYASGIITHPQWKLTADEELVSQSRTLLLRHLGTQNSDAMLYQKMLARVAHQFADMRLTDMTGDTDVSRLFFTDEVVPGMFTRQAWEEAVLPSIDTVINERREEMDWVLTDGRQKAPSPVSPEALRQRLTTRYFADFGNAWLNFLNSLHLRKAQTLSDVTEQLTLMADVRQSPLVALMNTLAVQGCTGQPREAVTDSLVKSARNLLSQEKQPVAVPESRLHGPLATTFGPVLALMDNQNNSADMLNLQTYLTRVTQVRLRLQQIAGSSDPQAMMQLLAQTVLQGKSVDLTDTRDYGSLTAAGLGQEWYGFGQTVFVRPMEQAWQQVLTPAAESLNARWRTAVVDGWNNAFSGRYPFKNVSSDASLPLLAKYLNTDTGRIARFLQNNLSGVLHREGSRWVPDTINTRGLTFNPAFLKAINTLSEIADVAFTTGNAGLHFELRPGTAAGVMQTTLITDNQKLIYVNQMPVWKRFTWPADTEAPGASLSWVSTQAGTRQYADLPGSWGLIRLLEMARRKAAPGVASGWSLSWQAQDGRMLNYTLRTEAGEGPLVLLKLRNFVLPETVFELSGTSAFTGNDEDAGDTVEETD

B1: anti-TssM nanobody nb25 (VHH)
VHH: QVQLVESGGGLVQAGGSLRLSCAASGFTFEDYAIGWFRQAPGKEREGVSCISNLDGSTYYPDSVKGRFTASSDKAKNMVYLQMNSLKPEDTAVYYCAAVNAQGIYCTDYIIGPYGMDYWGKGTQVTVSS
notes: llama VHH raised against TssMp; CDR3 of 19 residues, disulfide bridge between Cys-106 and CDR2 Cys-50; source: E. coli WK6 periplasm (pHEN6, pelB signal peptide), purified (Ni-NTA, Superdex 75)
B2: anti-TssM nanobody nb02 (VHH)
VHH: DVQLVESGGGLVHPGGSLRLSCAASGRTFSDYALGWFRQAPGKDREFVAAISWSGGSTYYADSVQGRFTISRDNDKNSVYLQMNSLKPEDTAVYYCAADKYYTGPGGESVYDYWGRGTQVTVSS
notes: llama VHH raised against TssMp; CDR3 of 14 residues; source: E. coli WK6 periplasm (pHEN6, pelB signal peptide), purified (Ni-NTA, Superdex 75)
B3: anti-TssM nanobody nb42 (VHH)
VHH: DVQLVESGGGLVQAGGSLRLSCAASGFTFGDYAIGWFRQAPGKEREGVSCFSNSDGSTYYADSVKGRFTSSSDNAKNTQYLQMNSLKPEDTAIYYCAAVKAQGIYCTEYIIGPYGMDYWGKGTLVTVSS
notes: very similar to nb25, CDR3 identical to that of nb25; No structure was solved for nb42; also called nb25 variant nb42; source: E. coli WK6 periplasm (pHEN6, pelB signal peptide), purified (Ni-NTA, Superdex 75)

Biological target: T1, periplasmic domain of the EAEC TssM …
Assay: SPR; nanobodies covalently linked to a CM5 chip, TssMp injected (1.95 to 250 nM); Biacore X100; multi-cycle kinetics; regeneration with glycine-HCl pH 2.5; apparent KDs
Settings: both partners purified
Work on B1 yielded a Kd of 1.61 ± 0.05 nM, a koff of 0.00056 s⁻¹ and a kon of 350000 M⁻¹ s⁻¹.
B2 gave a Kd of 66.8 ± 2.5 nM, a koff of 0.0402 s⁻¹ and a kon of 602000 M⁻¹ s⁻¹.
Binder B3 has a Kd of 1.76 ± 0.08 nM, a koff of 0.00036 s⁻¹ and a kon of 204000 M⁻¹ s⁻¹.
